The record followed here is patent publication US5670316, “Diagnostic applications of double D-loop formation” (Daikin Industries, Ltd.).

In this data set the target is RecA (UniProt P0A7G6 P0A7G6:2-353). The data set is described as follows: EMSA; 2.4 mM ATPgammaS, 37 C 10 min; retardation increases over 0.137-13.7 uM RecA. The note with it: tags: wild-type, untagged; purified from overproducing strain JC12772 or purchased from Pharmacia; label: 32P 5'-end; both complementary strands, heat denatured. As to the method:
RecA protein coating of probes was normally carried out in a standard 1× RecA coating reaction buffer (10× RecA reaction buffer: 100 mM Tris acetate (pH 7.5 at 37° C.), 20 mM magnesium acetate, 500 mM sodium acetate, 10 mM DTT and 50% glycerol (Cheng et al. 1988). All of the probes, whether double-stranded or single-stranded, were denatured before use by heating to 95°–100° C. for five minutes, placed on ice for one minute, and subjected in a Tomy centrifuge to centrifugation (10,000 rpm) at 0° C. for approximately 20 seconds. Denatured probes were added immediately to room temperature RecA coating reaction buffer mixed with ATPγS and diluent (double-distilled H_2O), as necessary.
Heat denatured ^32P-labeled double-stranded 121-mer and 159-mer DNA probes were reacted with RecA protein as described above. The final RecA-DNA reaction mixtures contained 2.4 mM ATPγS. RecA protein or RecA storage buffer was added to each of four reactions containing 0.01 μg of either denatured 121- or 159-mer DNA probe. The final concentration of RecA in each reaction was 0, 0.137, 1.37 or 13.7 μM in lanes 1 and 5, 2 and 6, 3 and 7 or 4 and 8, respectively (FIG. 3). All RecA/DNA probe coating reactions were performed in a final volume of 10 μl. RecA binding was initiated by incubating all the reactions at 37° C. for 10 min. […]
(In general: Mobility shift assays separate free from complexed probe on a gel.)

RecA, sequence (P0A7G6 2-353, one chain of several): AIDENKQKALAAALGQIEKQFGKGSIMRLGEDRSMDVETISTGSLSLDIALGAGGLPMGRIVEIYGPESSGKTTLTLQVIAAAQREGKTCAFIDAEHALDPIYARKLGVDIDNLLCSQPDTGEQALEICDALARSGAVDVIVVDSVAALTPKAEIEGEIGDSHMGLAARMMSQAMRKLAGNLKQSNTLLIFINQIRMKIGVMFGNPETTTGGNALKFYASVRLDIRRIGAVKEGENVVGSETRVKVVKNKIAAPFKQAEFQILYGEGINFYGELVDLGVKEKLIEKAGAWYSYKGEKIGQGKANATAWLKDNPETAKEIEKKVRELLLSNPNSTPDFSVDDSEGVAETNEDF

B1: lambda 159-mer probe (7472-7630), heat denatured (ssDNA)
DNA: CTGCATACTGATGCACTTCACGCCACGCGGGATGAACCTGTGGCATTTGTGCTGCCGGGAACGGCGTTTCGTGTCTCTGCCGGTGTGGCAGCCGAAATGACAGAGCGCGGCCTGGCCAGAATGCAATAACGGGAGGCGCTGTGGCTGATTTCGATAACC
As to B1, the binding result is listed as “binds”.
